Test results published in patent US20220184120A1 (MINERVA BIOTECHNOLOGIES, published 2022).

B6: C-10 peptide (PSMGFR minus 10 amino acids from the C-terminus) (peptide)
peptide: GTINVHDVETQFNQYKTEAASRYNLTISDVSVSDV
notes: also called C-10 PSMGFR; PSMGFR C-10

Assays:
[1] = biological target: T1, PSMGFR peptide (Primary Sequence of the MUC1 Growth Factor Receptor); assay: ELISA, PSMGFR peptide on plate (FIG. 5)
T1 construct: synthetic peptide immobilised on ELISA plates; also called MUC1* peptide; MUC1* extra cellular domain peptide
T1 peptide: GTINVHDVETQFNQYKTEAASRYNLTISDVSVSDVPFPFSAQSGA
Method: Humanized MN-C2 scFv is then incubated with the surface, washed and detected according to standard methods.

[2] = biological target: B6; assay: ELISA (recap in IHC legend)
[3] = biological target: T2, N+20/C-27 peptide (20 amino acids added onto the N-terminus and 27 deleted from the C-terminus of PSMGFR); assay: ELISA (FIG. 63)
T2 peptide: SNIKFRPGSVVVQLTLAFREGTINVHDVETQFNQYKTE
Method: (§1) ELISA assays were performed to determine if, in addition to recognizing their immunizing peptide, they recognized PSMGFR, N−10 or C−10. In addition, they were tested for their ability to bind to N+20/C−27, N+9/C−9. We first did the ELISA assay on our set of reference antibodies, MNC2, MNE6, which we know are cancer-specific plus MNC3, which we know recognizes stem cells and progenitor cells (FIG. 63A-63B). None of the reference antibodies bound to the N+20/C−27 peptide. MNC2 and MNE6 cannot bind to PSMGFR peptides with 27, 10 or 9 C-terminal deletions, however, MNC3 binds to C−10 and to N+9/C−9 peptides.

[4] = biological target: T1, PSMGFR peptide (Primary Sequence of the …); assay: ELISA (FIG. 2C)
[5] = biological target: T3, N+9/C-9 peptide (9 amino acids added onto the N-terminus and 9 deleted from the C-terminus of PSMGFR); assay: ELISA (FIG. 63A)
T3 peptide: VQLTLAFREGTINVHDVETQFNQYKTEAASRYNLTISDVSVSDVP
Method: as §1

[6] = biological target: T4, N-10 peptide (PSMGFR minus 10 amino acids from the N-terminus); assay: ELISA (FIG. 2B-2C)
T4 construct: also called N-10 PSMGFR; PSMGFR N-10
T4 peptide: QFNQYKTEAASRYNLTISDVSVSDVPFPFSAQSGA

[7] = biological target: B6; assay: ELISA
[8] = biological target: T5, MUC1 transmembrane cleavage product after cleavage of full-length MUC1 by MMP9 (UniProt P15941 1110-1255); assay: flow cytometry, HCT-MUC1-18 cells + enzyme (FIG. 75L)
T5 construct: on HCT-MUC1-18 (or T47D) cells treated with MMP9; also called MUC1* generated by cleavage by MMP9; MMP9 cleaved form of MUC1
T5 sequence (looked up): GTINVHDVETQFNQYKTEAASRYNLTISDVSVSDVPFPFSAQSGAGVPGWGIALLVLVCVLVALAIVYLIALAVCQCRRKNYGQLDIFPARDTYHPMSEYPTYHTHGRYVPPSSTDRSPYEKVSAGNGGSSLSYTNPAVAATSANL
Method: (§2) Antibodies generated by immunization with PSMGFR, N+20/C−27, or N+9/C−9 were tested for their ability to recognize MUC1 after it is cleaved by MMP9. […] To HCT-MUC1-18 cells was added either a catalytically active MMP9 or MMP2. The enzymes, added over a range of concentrations, were incubated with the cells for 24 hours. The resultant cells were then incubated with the various antibodies and analyzed by FACS to determine which bound to a MUC1 cleavage product produced by cleavage by MMP9 (FIG. 75A-75N). […] Each bar graph is labeled with both the name of the antibody used in that assay and its cognate epitope. The order of the graphs from right to left corresponds to the distance from the cell surface of the antibody's cognate epitope. […] For the greatest degree of cancer specificity, the antibody should recognize a conformational epitope of a MUC1 cleavage product created when MUC1 is cleaved by MMP9.

[9] = biological target: T6, MUC1* (cleaved MUC1) as it occurs on MUC1/MUC1* positive cancer cell lines (human, UniProt P15941 1110-1255, limits assumed); assay: flow cytometry, panel of cancer cell lines (FIGS. 80-87)
T6 construct: the cell line is named under assay; also called MUC1* positive cancer cells; ZR-75-1 aka 1500
T6 sequence (looked up): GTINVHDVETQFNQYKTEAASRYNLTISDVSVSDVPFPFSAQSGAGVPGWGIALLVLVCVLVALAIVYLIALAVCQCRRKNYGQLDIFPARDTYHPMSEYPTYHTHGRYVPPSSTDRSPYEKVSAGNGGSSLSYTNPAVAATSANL

[10] = biological target: T3, N+9/C-9 peptide (9 amino acids added …); assay: ELISA (FIG. 66)
[11] = biological target: T1, PSMGFR peptide (Primary Sequence of the …); assay: ELISA (FIG. 69)
Method: (§3) In order to further refine the epitopes to which each antibody binds, a series of smaller peptides derived from the PSMGFR sequence were synthesized: N−30 (SEQ ID NO:7), N−26 (SEQ ID NO:6), N−19 (SEQ ID NO:4), N−10/C−5 (SEQ ID NO:8), N−19/C−5 (SEQ ID NO:9). Each of the antibodies was tested in an ELISA assay for their ability to bind to this refined set of peptides, plus PSMGFR, N−10 and C−10 peptides (FIG. 67-69).

N-10/C-5 peptide = biological target: T7, N-10/C-5 peptide; assay: ELISA (FIG. 69)
T7 peptide: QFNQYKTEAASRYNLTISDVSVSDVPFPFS
Method: as §3

[12] = biological target: T4, N-10 peptide (PSMGFR minus 10 amino …); assay: ELISA (FIG. 69)
Method: as §3

[13] = biological target: B6; assay: ELISA (FIG. 69)
Method: as §3

N-19 peptide = biological target: T8, N-19 peptide; assay: ELISA (FIG. 69)
T8 peptide: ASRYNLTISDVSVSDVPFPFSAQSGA
Method: as §3

N-26 peptide = biological target: T9, N-26 peptide; assay: ELISA (FIG. 69)
T9 peptide: ISDVSVSDVPFPFSAQSGA
Method: as §3

N-19/C-5 peptide = biological target: T10, N-19/C-5 peptide; assay: ELISA (FIG. 69)
T10 peptide: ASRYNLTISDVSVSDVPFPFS
Method: as §3

N-30 peptide = biological target: T11, N-30 peptide; assay: ELISA (FIG. 69)
T11 peptide: SVSDVPFPFSAQSGA
Method: as §3

[14] = biological target: T3, N+9/C-9 peptide (9 amino acids added …); assay: ELISA
[15] = biological target: T1, PSMGFR peptide (Primary Sequence of the …); assay: ELISA (FIG. 65A)
From the text: The antibodies being tested were derived from animals immunized with the N+20/C−27 peptide. The first selection criteria was to confirm that the antibodies bound to the immunizing N+20/C−27 peptide. […] Although these antibodies were raised against the N+20/C−27 peptide, all but one, 45C11, still bind to the PSMGFR peptide. […] 1E4 was able to bind to the N+20/C−27 peptide, the PSMGFR and the N−10 peptide, consistent with the idea that its epitope must lie within the […] sequence. […] The color of the bars for each antibody in the ELISA graph are color coded to match the deductive cognate sequence, or a portion thereof, of that antibody.
This same ELISA assay was performed on the antibodies of the invention (FIG. 64-66 and FIG. 201). Note that only 20A10 exactly matches the binding profile of MNC2 and MNE6. 25E6, 28F9 and 18G12 are all able to bind to the N−10 peptide. 18B4 is the only antibody raised against the PSMGFR peptide that requires the 10 most N-terminal amino acids of the peptide. The color of the bars for each antibody in the ELISA graph are color coded to match the deductive cognate sequence, or a portion thereof, of that antibody. In addition, another set of antibodies was assayed by ELISA (FIG. 201). Of this set, B12, B2, B7, B9, 8C7F3, and H11 bound to the PSMGFR peptide, bound to the N−10 peptide, but not to the C−10 peptide (FIG. 201).

[16] = biological target: T5, MUC1 transmembrane cleavage product …; assay: flow cytometry, HCT-MUC1-18 cells + enzyme (FIG. 75K)
Method: as §2

[17] = biological target: T4, N-10 peptide (PSMGFR minus 10 amino …); assay: ELISA
NME7-AB (recombinant) = biological target: T12, NME7-AB (recombinant) (Homo sapiens (Human), UniProt Q9Y5B8 92-376); assay: ELISA (FIG. 2A)
T12 construct: the entry ends in a His tag; also called NM23-H7
T12 sequence: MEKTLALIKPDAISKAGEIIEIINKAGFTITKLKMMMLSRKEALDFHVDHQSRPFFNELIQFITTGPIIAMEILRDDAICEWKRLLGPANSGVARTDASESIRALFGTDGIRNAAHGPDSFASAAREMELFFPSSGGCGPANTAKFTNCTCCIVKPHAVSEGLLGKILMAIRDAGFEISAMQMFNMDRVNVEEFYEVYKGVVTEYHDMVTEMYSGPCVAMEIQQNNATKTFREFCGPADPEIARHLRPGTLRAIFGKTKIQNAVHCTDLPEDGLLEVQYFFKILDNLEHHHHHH
Method: (§4) FIGS. 2A-2I show results of ELISA assays. MUC1* peptides PSMGFR, PSMGFR minus 10 amino acids from the N-terminus aka N−10, or PSMGFR minus 10 amino acids from the C-terminus, aka C−10 are immobilized on the plate and the following are assayed for binding: NME7-AB (FIG. 2A), MN-C2 monoclonal antibody (FIG. 2B), MN-E6 monoclonal antibody (FIG. 2C), or dimeric NME1 (FIG. 2D). […] MUC1* peptides PSMGFR minus 10 amino acids from the N-terminus aka N−10, or PSMGFR minus 10 amino acids from the C-terminus, aka C−10, are immobilized on the plate and the following are assayed for binding: MN-C3 (FIG. 2E) and MN-C8 (FIG. 2F).

dimeric NME1 = biological target: T13, dimeric NME1 (human, UniProt P15531 1-152, limits assumed); assay: ELISA (FIG. 2D)
T13 construct: also called NM23-H1 dimers; dimeric NM23-H1
Method: as §4

T13 sequence (P15531 whole entry): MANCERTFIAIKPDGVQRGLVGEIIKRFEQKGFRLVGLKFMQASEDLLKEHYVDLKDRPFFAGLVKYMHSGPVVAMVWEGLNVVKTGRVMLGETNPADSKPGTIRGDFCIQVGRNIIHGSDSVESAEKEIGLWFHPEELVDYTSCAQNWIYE

B1: humanized MN-C2 scFv (scFv)
scFv: EVQLVESGGGLVKPGGSLRLSCAASGFTFSGYAMSWVRQAPGKGLEWVSTISSGGTYIYYPDSVKGRFTISRDNAKNSLYLQMNSLRAEDTAVYYCARLGGDNYYEYFDVWGKGTTVTVSSGGGGSGGGGSGGGGSDIVLTQSPASLAVSPGQRATITCRASKSVSTSGYSYMHWYQQKPGQPPKLLIYLASNLESGVPARFSGSGSGTDFTLTINPVEANDTANYYCQHSRELPFTFGGGTKVEIKRT
notes: also called huMN-C2scFv; huMNC2scFv; not shown: 6xHis tag detected with Anti-Penta-His antibody
[1]
  EC50: ~333 nM
[2]
  binding result: no binding

B2: MN-E6 mouse monoclonal anti-MUC1* antibody (antibody, V domains shown)
VH: EVKVVESGGDLVKPGGSLKLSCVVSGFTFSRYGMSWVRQTPGKRLEWVATISGGGTYIYYPDSVKGRFTISRDNAKNTLYLQMSSLKSEDTAMYHCTRDNYGRNYDYGMDYWGQGTSVTVSS
VL: QIVLTQSPAIMSASPGEEVTLTCSATSSVSYIHWFQQRPGTSPKLWIYSTSNLASGVPVRFSGSGYGTSYSLTISRMEAEDAATYYCQQRSSSPFTFGSGTKLEIK
notes: mouse monoclonal raised against PSMGFR; also called Min-E6
[3]
  binding result: no binding
[4]
  binding result: binds
[5]
  binding result: no binding (tested: 10 ug/mL or 1 ug/mL)
[6]
  binding result: binds
[7]
  binding result: no binding

B3: 8A9 mouse monoclonal antibody (antibody, V domains shown)
VH: EVELVESGGGLVQPGGSLRLSCATSGFTFTDHYMSWVRQPPGKALEWLGFIRNKANGYTTEYSASVKGRFTISRDNSQSILYLQMKTLRTEDSATYYCARPSDWDSWFAYWGQGTLVTVSA
VL: DVLMTQTPLSLPVSLGDQASISCRSSQSIVHSNGNTYLDWYLQKPGQSPKLLIYRVSNRFSGVPDRFSGSGSGTDFTLKISRVEAEDLGLYYCFQGSHVPWAFGGGTKLEIK
notes: raised against N+9/C-9; also called N+9/C-9 antibody 8A9
[8]
  binding result: no binding
[9]
  binding result: no binding
[10]
  binding result: binds
[11]
  binding result: no binding
N-10/C-5 peptide
  binding result: no binding
[12]
  binding result: no binding
[13]
  binding result: no binding
N-19 peptide
  binding result: no binding
N-26 peptide
  binding result: no binding
N-19/C-5 peptide
  binding result: no binding
N-30 peptide
  binding result: no binding

B4: 39H5 mouse monoclonal antibody (antibody, V domains shown)
VH: QIQLVQSGPELKKPGETVKISCKASGYTFTNYGMNWVKQAPGKGLKWMGWINTYTGEPTYVGDFKGRFAFSLETSASTAYLQINNLKNEDTATYFCVRGIHGYVDYWGQGTTLTVSS
VL: DVLMTQTPLSLPVSLGDQASISCRSSQSIVHRNGNTYLEWYLQKPGQSPKLLIYKVSNRFSGVPDRFSGSGSGTDFTLKISRVEAEDLGVYYCFQGSHLPWTFGGGTKLEIK
notes: raised against N+9/C-9; also called N+9/C-9 antibody 39H5
[14]
  binding result: binds
N-10/C-5 peptide
  binding result: no binding
[13]
  binding result: no binding
N-19 peptide
  binding result: no binding
N-26 peptide
  binding result: no binding
N-19/C-5 peptide
  binding result: no binding
N-30 peptide
  binding result: no binding

B5: 45C11 mouse monoclonal antibody (antibody, V domains shown)
VH: EVQLQQSGADLVKPGASVKLSCTASGFNIKDTFMHWVKQRPEQGLEWIGRIDPANGNTKYDPKFQGKATITADTSSNTAYLQLSSLTSEDTAVYYCAKPYGNYGYYYALDYWGQGTSVTVSS
VL: DVQITQSPSYLAASPGETITINCRASKSISKYLAWYQEKPGKTNKLLIYSGSTLQSGIPSRFSGSGSGTDFTLTISSLEPEDFAMYYCQQHNEFPWTFGGGTKLEIK
notes: raised against N+20/C-27; also called N+20/C-27 antibody 45C11
[15]
  binding result: no binding
[9]
  binding result: no binding
[16]
  binding result: no binding
[17]
  binding result: no binding

## B6
NME7-AB (recombinant)
  binding result: no binding
Dimeric NME1
  binding result: no binding
